Assay results reported in paper PMC7205312.
Positions count from the first letter of the chain named. In names and notes the source's numbering stands. Blank lines part the entries; values can stand above or below the binder they belong to.

Assays:
Assay in all cases: co-IP (IP anti-Myc beads, IB anti-HA), band intensity by ImageJ
Details in all cases: chain shown with the change; NB-ARC-HA co-expressed with NB-ARC-Myc; parent: 1.00
[1] = molecular target: T1, Tm-2^2 NB-ARC (D481V, L233A), Q71BG9
T1 chain: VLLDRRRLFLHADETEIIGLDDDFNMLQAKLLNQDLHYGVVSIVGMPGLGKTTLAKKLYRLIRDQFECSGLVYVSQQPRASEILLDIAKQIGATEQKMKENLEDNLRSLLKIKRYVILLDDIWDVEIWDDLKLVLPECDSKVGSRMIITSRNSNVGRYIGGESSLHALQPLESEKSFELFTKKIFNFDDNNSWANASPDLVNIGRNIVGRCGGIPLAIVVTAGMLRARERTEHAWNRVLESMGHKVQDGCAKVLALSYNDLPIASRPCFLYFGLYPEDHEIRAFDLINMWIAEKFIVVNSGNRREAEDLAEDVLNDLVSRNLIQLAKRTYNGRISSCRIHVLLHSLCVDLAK

[2] = molecular target: T2, Tm-2^2 NB-ARC (D481V, L246A), Q71BG9
T2 chain: T1 chain with A93L, L106A

[3] = molecular target: T3, Tm-2^2 NB-ARC (D481V, L242A), Q71BG9
T3 chain: T1 chain with A93L, L102A

ratio to parent [1]: 0.64
B1: Tm-2^2 NB-ARC (D481V), Q71BG9 L233A; D481V (protein)
chain: T1 chain

ratio to parent [2]: 0.45
B2: Tm-2^2 NB-ARC (D481V), Q71BG9 L246A; D481V (protein)
chain: T1 chain with A93L, L106A

ratio to parent [3]: 0.62
B3: Tm-2^2 NB-ARC (D481V), Q71BG9 L242A; D481V (protein)
chain: T1 chain with A93L, L102A
